Test results reported in PMC7949025, “Biophysical characterization of the ETV6 PNT domain polymerization interfaces” (The Journal of Biological Chemistry, 2021).

T1: biotinylated A93D-PNT domain (ETV6 residues 43-135, A93D, with Avitag) (human, UniProt P41212 43-135, A93D, biotin on the Avitag (~50 to 95% biotinylated))
T1 construct: ETV6, human, residues 43-135; made from the V112E construct by introducing A93D and E112V; also called biotinylated A93D-PNT domain ligand; A93D-PNT domain ligand; source: E. coli BL21 (λDE3) co-transformed with pET21a-BirA, purified (Ni-NTA, thrombin cleavage); not shown: His6, N-terminal, cleaved; Avitag, N-terminal, kept
T1 sequence (looked up): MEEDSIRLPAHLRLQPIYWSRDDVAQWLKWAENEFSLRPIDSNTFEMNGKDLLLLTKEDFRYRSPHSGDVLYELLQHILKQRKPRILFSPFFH

T2: biotinylated V112E-PNT domain (ETV6 residues 43-135, V112E, with Avitag) (human, UniProt P41212 43-135, V112E, biotin on the Avitag (~50 to 95% biotinylated))
T2 construct: ETV6, human, residues 43-135 of V112E ETV6; also called biotinylated V112E-PNT domain ligand; V112E-PNT domain ligand; source: E. coli BL21 (λDE3) co-transformed with pET21a-BirA, purified (Ni-NTA, thrombin cleavage); not shown: His6, N-terminal, cleaved; Avitag, N-terminal, kept
T2 sequence (looked up): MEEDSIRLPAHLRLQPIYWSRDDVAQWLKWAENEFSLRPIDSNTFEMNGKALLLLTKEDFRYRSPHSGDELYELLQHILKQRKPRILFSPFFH


molecular target: T1, biotinylated A93D-PNT domain (ETV6 …); assay: SPR; biotinylated A93D-PNT domain ligand captured on streptavidin Sensor Chip SA, PNT domain analytes flowed; Biacore X100, 25 °C, HBS-EP+ (10 mM HEPES, 150 mM NaCl, 3 mM EDTA, 0.05% v/v Tween-20, pH 7.4); analyte 0.2-60 nM, re-run at 20-6000 nM if KD > 60 nM; conditions: both partners purified
Procedure, shortened: (§1)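 In a Biacore X100 at 25 °C, a streptavidin Sensor Chip SA captured biotinylated ETV6 PNT domain (residues 43-135, Avitag) diluted to 50 μg/ml in HBS-EP+, and PNT domain analytes were injected at 0.2-60 nM, or at 20-6000 nM when binding was weaker. Rate and equilibrium dissociation constants came from the Biacore kinetics/affinity software wizard.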

Binder	Kd [nM]	koff [s⁻¹]	kon [M⁻¹ s⁻¹]
V112E-PNT domain (ETV6 residues 40-125 with the V112E mutation) (domain or fragment, human, UniProt P41212 40-125, looked up, ETV6 PNT domain fragment, human, residues 40-125; expressed as residues 1-125 and cut by thrombin at the internal site V37-P38-R39/A40; 15N- or 13C/15N-labelled or unlabelled in NMR; also called V112E-PNT domain analyte; source: E. coli BL21 (λDE3), purified (Ni-NTA, thrombin cleavage, Superdex S75; size exclusion omitted for SPR); not shown: His6, N-terminal, cleaved) ALRMEEDSIRLPAHLRLQPIYWSRDDVAQWLKWAENEFSLRPIDSNTFEMNGKALLLLTKEDFRYRSPHSGDELYELLQHILKQRK	5.1	0.0023	440000
K92A-V112E-PNT domain (domain or fragment, human, UniProt P41212 40-125, looked up, ETV6 PNT domain, human; source: E. coli BL21 (λDE3), purified (Ni-NTA, thrombin cleavage); not shown: His6, N-terminal, cleaved) ALRMEEDSIRLPAHLRLQPIYWSRDDVAQWLKWAENEFSLRPIDSNTFEMNGAALLLLTKEDFRYRSPHSGDELYELLQHILKQRK	62	0.022	350000
M89A-V112E-PNT domain (domain or fragment, human, UniProt P41212 40-125, looked up, ETV6 PNT domain, human; source: E. coli BL21 (λDE3), purified (Ni-NTA, thrombin cleavage); not shown: His6, N-terminal, cleaved) ALRMEEDSIRLPAHLRLQPIYWSRDDVAQWLKWAENEFSLRPIDSNTFEANGKALLLLTKEDFRYRSPHSGDELYELLQHILKQRK	340	0.033	97000
I59A-V112E-PNT domain (domain or fragment, human, UniProt P41212 40-125, looked up, ETV6 PNT domain, human; source: E. coli BL21 (λDE3), purified (Ni-NTA, thrombin cleavage); not shown: His6, N-terminal, cleaved) ALRMEEDSIRLPAHLRLQPAYWSRDDVAQWLKWAENEFSLRPIDSNTFEMNGKALLLLTKEDFRYRSPHSGDELYELLQHILKQRK	5.8	0.0025	430000
E88A-V112E-PNT domain (domain or fragment, human, UniProt P41212 40-125, looked up, ETV6 PNT domain, human; source: E. coli BL21 (λDE3), purified (Ni-NTA, thrombin cleavage); not shown: His6, N-terminal, cleaved) ALRMEEDSIRLPAHLRLQPIYWSRDDVAQWLKWAENEFSLRPIDSNTFAMNGKALLLLTKEDFRYRSPHSGDELYELLQHILKQRK	8.1	0.004	500000

Now from value to binder:

Kd [nM]	koff [s⁻¹]	kon [M⁻¹ s⁻¹]	Binder
7	0.0035	500000	E100A-V112E-PNT domain (domain or fragment, human, UniProt P41212 40-125, looked up, ETV6 PNT domain, human; source: E. coli BL21 (λDE3), purified (Ni-NTA, thrombin cleavage); not shown: His6, N-terminal, cleaved) ALRMEEDSIRLPAHLRLQPIYWSRDDVAQWLKWAENEFSLRPIDSNTFEMNGKALLLLTKADFRYRSPHSGDELYELLQHILKQRK
400	0.0025	6300	D101A-V112E-PNT domain (domain or fragment, human, UniProt P41212 40-125, looked up, ETV6 PNT domain, human; source: E. coli BL21 (λDE3), purified (Ni-NTA, thrombin cleavage); not shown: His6, N-terminal, cleaved) ALRMEEDSIRLPAHLRLQPIYWSRDDVAQWLKWAENEFSLRPIDSNTFEMNGKALLLLTKEAFRYRSPHSGDELYELLQHILKQRK
1000	0.0095	9500	L96A-V112E-PNT domain (domain or fragment, human, UniProt P41212 40-125, looked up, ETV6 PNT domain, human; source: E. coli BL21 (λDE3), purified (Ni-NTA, thrombin cleavage); not shown: His6, N-terminal, cleaved) ALRMEEDSIRLPAHLRLQPIYWSRDDVAQWLKWAENEFSLRPIDSNTFEMNGKALLALTKEDFRYRSPHSGDELYELLQHILKQRK
700	0.068	98000	L97A-V112E-PNT domain (domain or fragment, human, UniProt P41212 40-125, looked up, ETV6 PNT domain, human; source: E. coli BL21 (λDE3), purified (Ni-NTA, thrombin cleavage); not shown: His6, N-terminal, cleaved) ALRMEEDSIRLPAHLRLQPIYWSRDDVAQWLKWAENEFSLRPIDSNTFEMNGKALLLATKEDFRYRSPHSGDELYELLQHILKQRK

molecular target: T2, biotinylated V112E-PNT domain (ETV6 …); assay: SPR; biotinylated V112E-PNT domain ligand captured on streptavidin Sensor Chip SA, PNT domain analytes flowed; Biacore X100, 25 °C, HBS-EP+ (10 mM HEPES, 150 mM NaCl, 3 mM EDTA, 0.05% v/v Tween-20, pH 7.4); analyte 0.2-60 nM, re-run at 20-6000 nM if KD > 60 nM; conditions: both partners purified
Procedure, shortened: as §1

Kd [nM]	koff [s⁻¹]	kon [M⁻¹ s⁻¹]	Binder
7.5	0.0015	200000	A93D-PNT domain (ETV6 residues 40-125 with the A93D mutation) (domain or fragment, human, UniProt P41212 40-125, looked up, ETV6 PNT domain fragment, human, residues 40-125; expressed as residues 1-125 and cut by thrombin at the internal site V37-P38-R39/A40; 15N- or 13C/15N-labelled or unlabelled in NMR; also called A93D-PNT domain analyte; source: E. coli BL21 (λDE3), purified (Ni-NTA, thrombin cleavage, Superdex S75; size exclusion omitted for SPR); not shown: His6, N-terminal, cleaved) ALRMEEDSIRLPAHLRLQPIYWSRDDVAQWLKWAENEFSLRPIDSNTFEMNGKDLLLLTKEDFRYRSPHSGDVLYELLQHILKQRK
13	0.0034	270000	H119A-A93D-PNT domain (domain or fragment, human, UniProt P41212 40-125, looked up, ETV6 PNT domain, human; source: E. coli BL21 (λDE3), purified (Ni-NTA, thrombin cleavage); not shown: His6, N-terminal, cleaved) ALRMEEDSIRLPAHLRLQPIYWSRDDVAQWLKWAENEFSLRPIDSNTFEMNGKDLLLLTKEDFRYRSPHSGDVLYELLQAILKQRK
130	0.0045	35000	Y114A-A93D-PNT domain (domain or fragment, human, UniProt P41212 40-125, looked up, ETV6 PNT domain, human; source: E. coli BL21 (λDE3), purified (Ni-NTA, thrombin cleavage); not shown: His6, N-terminal, cleaved) ALRMEEDSIRLPAHLRLQPIYWSRDDVAQWLKWAENEFSLRPIDSNTFEMNGKDLLLLTKEDFRYRSPHSGDVLAELLQHILKQRK
8.1	0.0021	260000	P107A-A93D-PNT domain (domain or fragment, human, UniProt P41212 40-125, looked up, ETV6 PNT domain, human; source: E. coli BL21 (λDE3), purified (Ni-NTA, thrombin cleavage); not shown: His6, N-terminal, cleaved) ALRMEEDSIRLPAHLRLQPIYWSRDDVAQWLKWAENEFSLRPIDSNTFEMNGKDLLLLTKEDFRYRSAHSGDVLYELLQHILKQRK
3.3	0.00076	230000	L116A-A93D-PNT domain (domain or fragment, human, UniProt P41212 40-125, looked up, ETV6 PNT domain, human; gene purchased commercially (Biomatik); source: E. coli BL21 (λDE3), purified (Ni-NTA, thrombin cleavage); not shown: His6, N-terminal, cleaved) ALRMEEDSIRLPAHLRLQPIYWSRDDVAQWLKWAENEFSLRPIDSNTFEMNGKDLLLLTKEDFRYRSPHSGDVLYEALQHILKQRK
